Data taken from the RNAGym collection of RNA variant scans (doi:10.1073/pnas.2313332121).
Fewer inactive variants are shown than the library holds.

B1: TPR 5TU (parent)
chain: GGAUCUUCUCGAUCUAACAAAAAAGACAAAUCUGCCACAAAGCUUGAGAGCAUCUUCGGAUGCAGAGGCGGCAGCCUUCGGUGGCGCGAUAGCGCCAACGUUCUCAACUAUGACACGCAAAACGCGUGCUCCGUUGAAUGGAGUUUAUCAUG

Variants of: B1
Experiment: polymerase ribozyme fitness, log enrichment relative to wild type (log ratio); higher = more active; in vitro selection for triplet polymerase activity
Summary of the method: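 To select mutant libraries of each subunit of a heterodimeric triplet polymerase ribozyme, built by PCR and transcribed, each was annealed with a biotinylated primer, partner subunit and triplets, then incubated frozen at −7 °C. Extended constructs were gel-excised, captured on streptavidin beads and amplified by RT-PCR, in one round carried out in triplicate. Illumina sequencing of input and output libraries kept genotypes with ≥10 input reads and ≥1 read per output. Fitness is the base-2 logarithm of genotype enrichment relative to wild-type enrichment, from inverse-variance-weighted replicate averages.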

First: A17U C18A C35U C36G C105A
Second: A17U U101G
The “polymerase ribozyme fitness (log ratio)” value of the first is lower: at most -4.2 for the first, 0.484 for the second.

First: C18G U56A
Second: C18G C54U U56A A73G A91G
The “polymerase ribozyme fitness (log ratio)” value of the first is higher: -0.693 for the first, -3.27 for the second.

Going from A17U G50A to C18U A19U A64G A89G A119U U146C, the “polymerase ribozyme fitness (log ratio)” value falls from -2.57 to at most -4.2.

First: C18A A21G U33G C36A G84A G141C U144A C149U
Second: C18G A20C A52G A73U A120G
The “polymerase ribozyme fitness (log ratio)” value of the first is lower: at most -4.2 for the first, -3.02 for the second.

First: A17U G100U U134A U145G
Second: A17U C85A C96G
The “polymerase ribozyme fitness (log ratio)” value of the first is lower: at most -4.2 for the first, -2.34 for the second.

Compared with A17G C72U G88U U102C C105G, A17G C63A C118G A142U is higher in “polymerase ribozyme fitness (log ratio)” value: at most -4.2 for the first, -2.32 for the second.

Compared with C18A A20C U82C A122C, C18G C95U is higher in “polymerase ribozyme fitness (log ratio)” value: -1.71 for the first, 0.206 for the second.

Going from C18G C27U A37G A47C U55A G65U C85U to C18G G71C C76A G88A G94A A113G A119U C129U, the “polymerase ribozyme fitness (log ratio)” value falls from -4.19 to at most -4.2.

First: C18G G42A U45A G58U A122C A142G
Second: A17G U53A
The “polymerase ribozyme fitness (log ratio)” value of the first is lower: at most -4.2 for the first, -0.401 for the second.

Going from C18G A37C C96G A106G to A17U G58A C76U C87A A120G G133U, the “polymerase ribozyme fitness (log ratio)” value falls from -1.07 to at most -4.2.

A17U U31G G50C U78G U90G C96G and C18G A52C C93G cannot be ordered by “polymerase ribozyme fitness (log ratio)” value: at most -4.2 for the first, at most -4.2 for the second.

Compared with A17U C32G C57A U139A, C18U A22U U53G C96A is higher in “polymerase ribozyme fitness (log ratio)” value: at most -4.2 for the first, -3.13 for the second.

First: A17U C35A A47U A66C A73U G86A A91C U109G
Second: C18G C93U G143U
The “polymerase ribozyme fitness (log ratio)” value of the first is lower: at most -4.2 for the first, -3.08 for the second.

A17U A39G G50C A52C C96U C118U and A17U A20U A37U G48U C96A U101C cannot be ordered by “polymerase ribozyme fitness (log ratio)” value: at most -4.2 for the first, at most -4.2 for the second.

Going from A17G G48A to C18U A29C U78G G92A A147C, the “polymerase ribozyme fitness (log ratio)” value falls from -1.03 to at most -4.2.

Going from A17U A20C C85U U102G C116G to A17G G141C, the “polymerase ribozyme fitness (log ratio)” value rises from -3.83 to 0.607.

A17G G92A A120G A122G C125A and C18A A20U G71C G92C G143U U144G cannot be ordered by “polymerase ribozyme fitness (log ratio)” value: at most -4.2 for the first, at most -4.2 for the second.

A17U G67C A91C C95U G100U A106U and A17U A26C C76A G86A C96A C105G A115G cannot be ordered by “polymerase ribozyme fitness (log ratio)” value: at most -4.2 for the first, at most -4.2 for the second.

Going from A17U A47C C51G U61A G83A to C18G C32G C35U G86U C105G A115C, the “polymerase ribozyme fitness (log ratio)” value rises from at most -4.2 to -4.

First: A17U U53C G92A C129G
Second: A17G G58C C72U G152A
The “polymerase ribozyme fitness (log ratio)” value of the first is lower: at most -4.2 for the first, -2.87 for the second.

Compared with A17U A24U A39G C63G, A17G C72U A147C is higher in “polymerase ribozyme fitness (log ratio)” value: -4.15 for the first, -0.924 for the second.

Compared with A17G G86A, C18G U53A C57U G59C U61A C95G is lower in “polymerase ribozyme fitness (log ratio)” value: -0.889 for the first, -3.99 for the second.

First: A17G C99U
Second: A17G C54G
The “polymerase ribozyme fitness (log ratio)” value of the first is higher: -0.271 for the first, -1.5 for the second.

First: A17U G124U
Second: A17U U31G C32A A150G
The “polymerase ribozyme fitness (log ratio)” value of the first is higher: -0.693 for the first, at most -4.2 for the second.

A17U A19G A30G C38G U45A G88U and A17U U33A C36A C76A G94A G117U C129U cannot be ordered by “polymerase ribozyme fitness (log ratio)” value: at most -4.2 for the first, at most -4.2 for the second.

C18U A22U C43U C95U U101G G136A A138U and A17U G48C G50U C76A C93A cannot be ordered by “polymerase ribozyme fitness (log ratio)” value: at most -4.2 for the first, at most -4.2 for the second.

Going from A17G C38A U45A C69A C85U A142C C149U U151G to C18G G92U U130G, the “polymerase ribozyme fitness (log ratio)” value rises from at most -4.2 to -4.01.

Going from A17U C57U G136A to A17U U56C G74U C76U G84U C125G A138C, the “polymerase ribozyme fitness (log ratio)” value falls from 0.435 to at most -4.2.

First: A17G U44A A91G
Second: A17G C57A A91G C95G A122U
The “polymerase ribozyme fitness (log ratio)” value of the first is lower: at most -4.2 for the first, -4.04 for the second.

First: A17G C57U A113C
Second: A17U G81A G84A
The “polymerase ribozyme fitness (log ratio)” value of the first is lower: -3.96 for the first, -0.321 for the second.

Going from C18G U61A to A17U A26C G62A G86U C99U U134C A137U G140A A147U, the “polymerase ribozyme fitness (log ratio)” value falls from -0.567 to at most -4.2.

Going from A17U G71A C87G G140U to A17G G143U, the “polymerase ribozyme fitness (log ratio)” value rises from at most -4.2 to -2.24.

Compared with A17G G50C, A17G G50U is higher in “polymerase ribozyme fitness (log ratio)” value: -2.81 for the first, 0.372 for the second.

Compared with A17U A110U, A17G C93A is higher in “polymerase ribozyme fitness (log ratio)” value: at most -4.2 for the first, -2.46 for the second.

Compared with A17G C93G, A17G C93U is higher in “polymerase ribozyme fitness (log ratio)” value: -2.89 for the first, -0.578 for the second.

C18U A29U G68A C85U and A17G U33G C79G G84A U134G cannot be ordered by “polymerase ribozyme fitness (log ratio)” value: at most -4.2 for the first, at most -4.2 for the second.

Going from A17U G94C C132U to A17U G100A A120C A150U, the “polymerase ribozyme fitness (log ratio)” value falls from -1.54 to at most -4.2.

Compared with A17U G42A G81C G86U G92C G143C, A17G G58A is higher in “polymerase ribozyme fitness (log ratio)” value: at most -4.2 for the first, 1.26 for the second.

A17U C36G U61A C76G C103U A119U G141C and A17G G25C G50A G86A C93G cannot be ordered by “polymerase ribozyme fitness (log ratio)” value: at most -4.2 for the first, at most -4.2 for the second.

C18G G83A U145G U151G and C18G G83C C85U C96G A115C C116G U134A cannot be ordered by “polymerase ribozyme fitness (log ratio)” value: at most -4.2 for the first, at most -4.2 for the second.

C18A A19U C76A C85U C99U U104G A110G G143C and C18G G46A G74C U77A U135C cannot be ordered by “polymerase ribozyme fitness (log ratio)” value: at most -4.2 for the first, at most -4.2 for the second.

With A17G C75U C95U the “polymerase ribozyme fitness (log ratio)” value was 0.0451.
